Results reported in US20160052997A1.
Values joined by “and” are separate entries in the source; they are usually repeats but may differ in a detail not shown here. Equal values may be shown once. Read-outs that look alike come from different tables or passages of the source.

Legend:
[1] = molecular target: purified recombinant HA protein of H1N1 (A/Texas/05/09) (Influenza A virus A/Texas/05/09 (H1N1))
[2] = molecular target: purified recombinant HA protein of H3N2 (A/Brisbane/10/07) (Influenza A virus A/Brisbane/10/07 (H3N2)); assay: SPR, Biacore T200, HA captured via anti-6x his tag antibody, 25 C
[3] = molecular target: purified recombinant HA protein of H3N2 (A/Wisconsin/67/05) (Influenza A virus A/Wisconsin/67/05 (H3N2)); assay: as above
[4] = molecular target: purified recombinant HA protein of H7N7 (A/England/268/96) (Influenza A virus A/England/268/96 (H7N7)); assay: as above
[5] = molecular target: purified recombinant HA protein of H7N9 (A/Shanghai/1/2013) (Influenza A virus A/Shanghai/1/2013 (H7N9)); assay: as above
[6] = molecular target: purified recombinant HA protein of H1N1 (A/Texas/05/09) (Influenza A virus A/Texas/05/09 (H1N1)); assay: as above
[7] = molecular target: purified recombinant HA protein of H5N1 (A/Vietnam/1203/04) (Influenza A virus A/Vietnam/1203/04 (H5N1)); assay: as above
[8] = molecular target: purified recombinant HA protein of H7N9 (A/Anhui/1/2013) (Influenza A virus A/Anhui/1/2013 (H7N9)); assay: as above
[9] = molecular target: purified recombinant HA protein of H3N2 (A/Philippines/2/82) (Influenza A virus A/Philippines/2/82 (H3N2)); assay: as above
[10] = molecular target: purified recombinant HA protein of H1N1 (A/Ohio/07/09) (Influenza A virus A/Ohio/07/09 (H1N1)); assay: as above
[11] = molecular target: purified recombinant HA protein of H7N9 (A/Shanghai/1/2013) (Influenza A virus A/Shanghai/1/2013 (H7N9))
[12] = molecular target: purified recombinant HA protein of H7N9 (A/Anhui/1/2013) (Influenza A virus A/Anhui/1/2013 (H7N9))
[13] = molecular target: purified recombinant HA protein of H5N1 (A/Vietnam/1203/04) (Influenza A virus A/Vietnam/1203/04 (H5N1))
[14] = molecular target: purified recombinant HA protein of H7N7 (A/England/268/96) (Influenza A virus A/England/268/96 (H7N7))
[15] = molecular target: purified recombinant HA protein of H3N2 (A/Wisconsin/67/05) (Influenza A virus A/Wisconsin/67/05 (H3N2))
[16] = molecular target: purified recombinant HA protein of H3N2 (A/Brisbane/10/07) (Influenza A virus A/Brisbane/10/07 (H3N2))
[17] = molecular target: purified recombinant HA protein of H3N2 (A/Philippines/2/82) (Influenza A virus A/Philippines/2/82 (H3N2))
[18] = molecular target: purified recombinant HA protein of H1N1 (A/Ohio/07/09) (Influenza A virus A/Ohio/07/09 (H1N1))
[19] = molecular target: HA of A/Texas/05/2009 (H1N1) virus (Influenza A virus A/Texas/05/2009 (H1N1)); assay: cell-based or functional assay
[20] = molecular target: HA of A/Anhui/1/2013 (H7N9) virus (Influenza A virus A/Anhui/1/2013 (H7N9)); assay: cell-based or functional assay
[21] = molecular target: HA of A/Perth/16/09 (H3N2) virus (Influenza A virus A/Perth/16/09 (H3N2)); assay: cell-based or functional assay
[22] = molecular target: HA of Anhui/1/05 (H5N1) virus (Influenza A virus A/Anhui/1/05 (H5N1)); assay: cell-based or functional assay
[23] = molecular target: HA of A/Sydney/5/97 (H3N2) virus (Influenza A virus A/Sydney/5/97 (H3N2)); assay: cell-based or functional assay
[24] = molecular target: HA of A/Shanghai/2/2013 (H7N9) virus (Influenza A virus A/Shanghai/2/2013 (H7N9)); assay: cell-based or functional assay
[25] = molecular target: HA of A/Ann Arbor/6/60 ca (H2N2) virus (Influenza A virus A/Ann Arbor/6/60 ca (H2N2)); assay: cell-based or functional assay
[26] = molecular target: HA of A/Solomon Islands/2006 (H1N1) virus (Influenza A virus A/Solomon Islands/3/2006 (H1N1)); assay: cell-based or functional assay
[27] = molecular target: HA of A/Ohio/83 (H1N1) virus (Influenza A virus A/Ohio/83 (H1N1)); assay: cell-based or functional assay
[28] = molecular target: HA of A/Beijing/32/92-R-H3N2 PR8 virus (Influenza A virus A/Beijing/32/92 (H3N2)); assay: cell-based or functional assay
[29] = molecular target: HA of A/Ohio/07/2009 (H1N1) virus (Influenza A virus A/Ohio/07/2009 (H1N1)); assay: cell-based or functional assay
[30] = molecular target: HA of A/PuertoRico/8/34 (H1N1) virus (Influenza A virus A/PuertoRico/8/34 (H1N1)) (UniProt P03452); assay: cell-based or functional assay
[31] = molecular target: HA of A/ck/HK/G9/97 (H9N2) virus (Influenza A virus A/ck/HK/G9/97 (H9N2)); assay: cell-based or functional assay

CT149 (antibody), sequence (VH): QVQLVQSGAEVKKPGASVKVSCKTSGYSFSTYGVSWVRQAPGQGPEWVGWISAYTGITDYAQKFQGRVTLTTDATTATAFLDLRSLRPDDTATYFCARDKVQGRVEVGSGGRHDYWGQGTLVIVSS
CT149 (antibody), sequence (VL): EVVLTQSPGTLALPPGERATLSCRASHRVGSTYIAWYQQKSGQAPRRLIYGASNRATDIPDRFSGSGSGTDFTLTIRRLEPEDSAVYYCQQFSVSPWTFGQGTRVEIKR

For CT149 (antibody), the Kd [1] was 33.8 nM, the Kd [2] was 1.77 nM and 1.85 nM and the koff [2] was 0.000316 s⁻¹ and 0.000319 s⁻¹. For the same substance, the kon [2] was 179000 M⁻¹ s⁻¹ and 173000 M⁻¹ s⁻¹, the Kd [3] was 86 nM and 91.3 nM and the koff [3] was 0.00723 s⁻¹ and 0.00745 s⁻¹. The kon [3] was 84100 M⁻¹ s⁻¹ and 81600 M⁻¹ s⁻¹, the Kd [4] was 4.4 nM and 4.43 nM and the koff [4] was 0.00176 s⁻¹ and 0.0018 s⁻¹. The kon [4] was 401000 M⁻¹ s⁻¹ and 406000 M⁻¹ s⁻¹, the Kd [5] was 0.142 nM and 0.155 nM and the koff [5] was 0.0028 s⁻¹ and 0.00285 s⁻¹. The kon [5] was 1.97e+07 M⁻¹ s⁻¹ and 1.83e+07 M⁻¹ s⁻¹, the Kd [6] was 33.6 nM and 34.1 nM and the koff [6] was 0.0558 s⁻¹ and 0.0562 s⁻¹. The kon [6] was 1.66e+06 M⁻¹ s⁻¹ and 1.65e+06 M⁻¹ s⁻¹, the Kd [7] was 2.96 nM and 2.93 nM and the koff [7] was 0.00391 s⁻¹ and 0.00386 s⁻¹. For the same substance, the kon [7] was 1.32e+06 M⁻¹ s⁻¹, the Kd [8] was 0.165 nM and 0.201 nM and the koff [8] was 0.00326 s⁻¹ and 0.00316 s⁻¹. For the same substance, the kon [8] was 1.98e+07 M⁻¹ s⁻¹ and 1.57e+07 M⁻¹ s⁻¹, the Kd [9] was 0.0502 nM and 0.0411 nM and the koff [9] was 1.47e-05 s⁻¹ and 1.17e-05 s⁻¹. The kon [9] was 292000 M⁻¹ s⁻¹ and 285000 M⁻¹ s⁻¹, the Kd [10] was 50.9 nM and 51.7 nM and the koff [10] was 0.0379 s⁻¹ and 0.0387 s⁻¹. The kon [10] was 746000 M⁻¹ s⁻¹ and 747000 M⁻¹ s⁻¹, the Kd [11] was 0.149 nM and the Kd [12] was 0.183 nM. The Kd [13] was 2.94 nM, the Kd [14] was 4.41 nM and the Kd [15] was 88.6 nM. The Kd [16] was 1.81 nM, the Kd [17] was 0.0456 nM and the Kd [18] was 51.3 nM.

Substance CT-P27 has an EC50, microneutralization test [19] of 2.05 µg/mL, an EC50, microneutralization test (Contract Lab A) [20] of 2.38 µg/mL and an EC50, microneutralization test [21] of 3.99 µg/mL. For the same substance, the EC50, microneutralization test [22] was 8.02 µg/mL, the EC50, microneutralization test [23] was 6.53 µg/mL and the EC50, microneutralization test (Contract Lab A) [24] was 3.55 µg/mL. It also gave an EC50, microneutralization test (Contract Lab B) [24] of 13.1 µg/mL, an EC50, microneutralization test [25] of 12.7 µg/mL and an EC50, microneutralization test [26] of 0.27 µg/mL. The EC50, microneutralization test [27] was 0.73 µg/mL, the EC50, microneutralization test [28] was 3.1 µg/mL and the EC50, microneutralization test [29] was 0.29 µg/mL. The EC50, microneutralization test [30] was 0.67 µg/mL and the EC50, microneutralization test [31] was 5.09 µg/mL.
